{
  "source": "patent CN104628856A",
  "about": "(INST RADIATION MED AMMS PLA; BEIJING C & N INTERNAT SCI …, dated 2015)",
  "binders": {"B1": {"name": "抗BLyS单链抗体B-11ScFv (scFv, V domains shown)", "VH": "EVQLQESGGGLVQPGGSLRLSCAASGFTFSRYWMLWVRQAPGKGLVWVSRINTDGSSTWYADSVKGRFTISRDNAKNTLYLQMNSLRAEDTAVYYCARDQDGVGATHDYWGQGTLVTVSS", "notes": "Secreted from 293E cells out of plasmid p3457B-11ScFv and purified on a nickel column, about 30 kDa; also called 11号ScFv; 抗人BLyS ScFv抗体; not shown: His tag from vector p3457his (Ni column purification, anti-His blot)"}},
  "target": "T1, B淋巴细胞刺激因子(BLyS)蛋白 (human, UniProt Q9Y275 134-285, biotinylated (生物素化, sites not stated))",
  "T1 construct": "The protein was harvested from the culture supernatant, so it may be the soluble form; It was biotinylated for the ForteBio assay; also called BAFF; 抗原BLyS; not shown: His tag from vector p3457-his",
  "T1 sequence (Q9Y275 134-285)": "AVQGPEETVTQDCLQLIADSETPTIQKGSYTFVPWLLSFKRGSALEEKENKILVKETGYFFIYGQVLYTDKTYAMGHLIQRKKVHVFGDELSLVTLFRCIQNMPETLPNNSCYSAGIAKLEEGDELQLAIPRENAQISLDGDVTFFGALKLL",
  "assay": "ForteBio (BLI): biotinylated BLyS at 20 μg/ml loaded, B-11ScFv in 2-fold dilutions from 25 to 0.78125 μg/ml in PBS pH 7.4",
  "data": [
    {"binder": "B1", "values": [
      {"measurement": "Kd", "result": 3.08, "unit": "nM"}
    ]}
  ]
}
